Results published in patent US20090280138A1.
Values belong to the binder of their own block, whether it stands above or below them.

Columns and labels:
Details in all cases: remark: other sources report otherwise
[1] = target: MHC class I allele A*0201 monomer (human); assay: iTopia, multiparametric iScore
[2] = target: MHC class I allele B*0702 monomer (human); assay: iTopia, multiparametric iScore
[3] = target: MHC class I allele A*0301; assay: iTopia peptide binding assay
[4] = target: MHC class I allele A*0101; assay: iTopia peptide binding assay
[5] = target: MHC class I allele B*0702; assay: iTopia peptide binding assay
[6] = target: MHC class I allele A*0201; assay: iTopia peptide binding assay
[7] = target: MHC class I molecule HLA-A*0201 (iTopia plate-bound monomer); assay: iTopia off-rate assay, 37 C; fit R^2 0.35
[8] = target: MHC class I molecule A*0101; assay: iTopia iScore
[9] = target: MHC class I molecule B*0702; assay: iTopia iScore
[10] = target: MHC class I molecule A*0301; assay: iTopia iScore
[11] = target: MHC class I molecule A*0201; assay: iTopia iScore
[12] = target: MHC class I molecule HLA-B*0702 (iTopia plate-bound monomer); assay: iTopia off-rate assay, 37 C; fit R^2 0.09
[13] = target: MHC class I molecule HLA-A*0301 (iTopia plate-bound monomer); assay: iTopia off-rate assay, 37 C; fit R^2 0.99
[14] = target: MHC class I molecule B*0702; assay: iTopia affinity assay (ED50), peptide titration on plate-bound MHC
[15] = target: MHC class I molecule A*0301; assay: as above

iScore [1]: 1.21 | iScore [2]: 0.515
Binder: RLARLALVL (here or on the partner: biotinylated, bound to streptavidin-coated plate) [5T4 9-mer peptide 9]

% of positive control peptide binding [3]: 48% | % of positive control peptide binding [4]: 2% | % of positive control peptide binding [5]: 84% | % of positive control peptide binding [6]: 65%
Binder: RLARLALVL (here or on the partner: bound via biotin to streptavidin-coated plate) [5T4 9 mer peptide 9 …]

t½ half life [7]: 15.9 h | iScore [8]: 0 | iScore [9]: 0.515 | iScore [10]: 0.052 | iScore [11]: 1.21 | t½ half life [12]: 2 h | t½ half life [13]: 0.3 h
Binder: RLARLALVL (here or on the partner: biotin (bound to streptavidin-coated plate)) [5T4 9-mer peptide 9 …]

EC50 [14]: 0.7 µM | EC50 [15]: 3 µM
Binder: RLARLALVL (here or on the partner: biotin (bound via biotin to streptavidin-coated plates)) [5T4 9 mer peptide 9 (…)]
